Protein production data for 22 sequences are collected here from a protein production outcome set (Wang et al. 2014).

The nature of the series: label from the status in PepcDB records.

Take “MRMIDIIEKKRDGHTLTTEEINFFIGGYVKGDIPDYQASSLAMAIYFQDMNDDERAALTMAMVNSGDMIDLSDIKGVKVDKHSTGGVGDTTTLVLAPLVAAVDVPVAKMSGRGLGHTGGTIDKLEAIDGFHVEIDEATFVKLVNENKVAVVGQSGNLTPADKKLYALRDVTGTVNSIPLIASSIMSKKIAAGADAIVLDVKTGSGAFMKTLEDAEALAHAMVRIGNNVGRNTMAIISDMNQPLGRAIGNALELQEAIDTLKGQGPKDLTELVLTLGSQMVVLANKAETLEEARALLIEAINSGAALEKFKTFIKNQGGDETVIDHPERLPQAQYQIEYKAKKSGYVTELVSNDIGVASMMLGAGRLTKEDDIDLAVGIVLNKKIGDKVEEGESLLTIHSNRQDVDDVVKKLDSSITIADHVVSPTLIHKIITE”: the protein production result was “not failed”. In the case of “MRMLAHAIKVWNENTGALSHLEIEPLPHQIHLVHHILASGNFNWLIADDVGLGKTIETGMLLHALQQRDLAKRILLITPAGLTKQWQEELYHKFKLEDFEIYGEDFFINEPRQWKMHDCVIGSMDRLKQVDHLESLLQAEPWDLVIFDEGHRLSRRQYGQKLDSSERYDLAKNLRSQTKHMLLLSATPHQGMQDKFVALLELLRPERR”, the protein production result is listed as “failed”. For the sequence “MRMQQDVQDVKLIAVLNLLNQLSNKNSLEEYLNGVIDFLSGWTGCENIGIRVLREAGLAPYVVHRGFDKDFIASESCISVEGDECVCLRVLKQQFKSEDQDHISAAGTYYAPNFYRYVEELREDQLLNFRGLCAHKQFKSLAVIPLLHQGKVVGAIHIADIKDGVFSEEDIHFIETIRPLVAEAIYRHNLEKALESTVLRYEAEEMVIRKLKFEERLASISARFNQQEDFKAAAEESLKDILKLFKAEEVCLYLGGNLKEYVSVREHGQQACGCVIPSDTFAELRGRWKQGEILCQKPALQDEFKEIEYFAQEVFSKDSILTIPLNFKGSLLGVLIIVNISSGGLPFKEILNPLKLVTETFANAVEQGRIQYQLMWSENRYRTIFNHSGSAFLIVDENLKILLSNPQAERLLDLPSAKIDNIAYLTDFLPDTEVGRLKEYNRRRLQRDPQIPRQYEMKYKDSRGNLKDVIVSAEVIPQTTQTVLSIIDITEWKKTEAELQFLNLHDRLTGLYNRVYFEQELRRYETDPGQEVGLIMADVNGLKLINTTFGSEAGDQVLVTTARLLNECFEEHLVARIGGDEFAVLIEKDKNVDLEQACQLFRRNVEKYNKDHDGYPLDISLGYACSGAGGVNMSELLRKADDAMGREKLHSNNSTRNSQVQILSKALECRDFITEGHAERVQNLIISTGQLAGLSEQRLSDLKLFAQFHDIGKVGIPDQILFKKGRLTADEWEIMKQHCEIGYRIAQSTPDIYPIADWILKHHENWDGSGYPLGIAGEEIPIECRILAVADTFDAMTNDRPYRKAQSTQAAIEEILRCAGTQFDPHIVELFVKTV”, the protein production result is “failed”. For the sequence “MRMRRSFPFLAGSALLVVLSAPAVAADGDEGFTIGDSRITESSGLAASRLHPGVYWTHNDSDDGPYLYAVDSRTGKTVATVTLSGVGSPRDVEAISIGPGNEIYVGDIGDNLGGQWDHVWIYELPEPKVLEDQTIRATQYVVKYADGARDAESLMVHPKTGRVYIVDKKEDGGHLYEGPARLSASGTNVFEPLGAVGLWATDAAFSPDGKQLAVRGYFGGIAYTWNGGKIKRQGQLSVPLQRQGESVTYTADGSELMYGSEGADSAVKPGSVPGYSGSGAKSPSGGGGSASAQDGDSDGSHANYKVGALALAVALALGLGVKRLLRRG”, the protein production entry is “failed”. “MRMSRIQARLLQAIVRPALKTNLLKHAAWRVVLKLRNEFAHAVPPVELETTFDENIRILTSLSDHIESQVFWQGFQEADEGVILLLKRFLPSDGSFIDVGANIGTFTLVAAHRAVRGQVHAFEPSAHHFARLAHNVELNDFKNVALNRKGLYDQPGEAVLFLPSQTGEMNNSGAASLYTSALEETRQVSEAVSLIRLDDYVREKSIGRVDIIKIDIEGAELKALEGARETIARFRPLVFMELDLDNLERAERSPEEVLQYWKSLNYEVSIILLTGETVPVTSPKEFGLHQNLQCRPF”: the protein production entry is “failed”. Consider “MRNETLVSIIVPVYNSAQYLRKCIDSILAQSYTEFELLLINDGSEDHSGLICDDYAQSDNRIQVFHQENAGVSAARNLGLEKHTGEHFLFIDSDDYIQERYLEELMKYASCDFVQCSCCSEPVGNDYLFVDGNFEGSDEIKQCLLKYIYPEFTVPFGRLYKSSIQRKNKLFFDTYLYSGEDTLWVSQYLLCVHSLRVSSYIGYIYVHHVGEHLSQKSISYEHLEYTLHKLLISYSDLEKRYDFDLTGVRYSVIIYFFHRYIVYIANRNYTEIRKELEKSCANPLIKGVFYDKKYLLKGKKMKLFNWLVLHDMYSVLALYVKRWKRYLLEHHHHHH”, for which the protein production entry is on record as “not failed”. Consider “MRNKDNQHSRLYYIILTIVIIAICVVVVILFNTLKTNRSHSTDRYADFTELKKDTIKNKDWRIKTKHRKNKDILVTAIHGGGIEPGTTEIARRISNVGKYNFYTFEGLRKSNNDQLHVTSTQFNEPILDKLLKNTKETLSIHGFSGDDPIVYIGGKDKEMSHSITKELRKKDFTVKESPNKIDAKSSDNIANKNESNSGVQLELTTALRKQFFKHYKLDRHTRSDSDKYTKDFYKFANAVQKGIEKVNLEHHHHHH”, for which the protein production entry is given as “not failed”.

As to “MRNMQEKGVSEKEILEELKKYRSLDLKYEDGNIFGSMCSNVLPITRKIVDIFLETNLGDPGLFKGTKLLEEKAVALLGSLLNNKDAYGHIVSGGTEANLMALRCIKNIWREKRRKGLSKNEHPKIIVPITAHFSFEKGREMMDLEYIYAPIKEDYTIDEKFVKDAVEDYDVDGIIGIAGTTELGTIDNIEELSKIAKENNIYIHVDAAFGGLVIPFLDDKYKKKGVNYKFDFSLGVDSITIDPHKMGHCPIPSGGILFKDIGYKRYLDVDAPYLTETRQATILGTRVGFGGACTYAVLRYLGREGQRKIVNECMENTLYLYKKLKENNFKPVIEPILNIVAIEDEDYKEVCKKLRDRGIYVSVCNCVKALRIVVMPHIKREHIDNFIEILNSIKRD”, the protein production result was “not failed”. As for “MRNVIAAVMASTLALSAYSQAAEVVTSVNWLPGDEGGQRGSQSHMFDGISLTEQQRQQLRDLMQRARHDRLPVNVSEMETMHRLVTAENFDENAVRAQAEKMAQEQVARQVEMAKVRNQMYHLLTPEQQAVLNAKHQQRMDQLREVARMQKGSAMMLSSSSNTLQPQ”, the protein production entry was “failed”. As to “MRNYIQGIDHVQVAAPVGCEEEARAFYGETIGMEEIPKPEELKKRGGCWFKCGNQEIHIGVEQNFNPAKRAHPAFYVLKIDEFKQELIKQGIEVIDDHARPDVIRFYVSDPFGNRIEFMENKN”, the protein production result was “not failed”. With “MRPIPEGYEAVFETVVTPEMTVRFEELGPVHPVYATYWMVKHMELAGRKIILPFLEEGEEGIGSYVEARHLASALPGMRVRVVARHEKTEGNRVYARVEAYNELGDLIGVGRTEQVILPKAKVEALFRRLKERWEAERSPS”, the protein production result is “not failed”. Consider “MRPNLLEALRAMTEGELYAALYQDPLTGVLNRRAFAGAIEEARAVALVDMDSLKWINDNLGHRAGDRALRVLADGLVRSFGADWVFRVSGDEFAVMDGDAEQLAQRLLLLRSSVPGFSFGTGSDMAEADRDMRHDKAEREKSGHRAARGLRPPWVP”, for which the protein production result is recorded as “failed”.

With “MRQIPQNHIHTRSTPFWNKETAPAGIFERHLDKGTRPDVYPRLSVMQGAVKYLGYADEHCSEPEEIMVINAGEFGVFPPEKWHNIEVMTDDTYFNIDFFVAPEVLMEGATSRKVIHAGRELEHHHHHH”, the protein production result is listed as “not failed”. As for “MRQIRYAYAVAVDALYTFLADDGWAIASHIALSTLMALFPFLIVLTSLAGFVGSRELADSAAELLLDVWPAQVASTLSGEIHDVLTTTRGGVLTIGLVLALYFASNGVESLRVGLNRAYAVIEPRPWYLLRLESIGYTLVAAFTALAMGFLIVLGPLIVATARHYVPLLVHDNEPLLTFARYGIAITALTVALFLLHAYLPAGRRSFRQILPGIVFTITASLISGMTFGMYLARFANNYVSMYAGLASVIIALVFLYFIAAIFVYGGELNAAIIKSRLPEGTTLQEAQLRAPGAKPV”, the protein production entry is given as “not failed”. The entry for “MRQLTAAALYENLFGPLALAYAPGRPFEWRSNGRAWRARGRLGAFGRPRLEPGTVECRTGRAWRQASIADAVAALPGAPQEHARLRHELNQTEALLRWNRVNAPRHDRRRMSFSALDAAIDEGHPYHPCFKSRTGFDEHDHRCYGPEADGTFQLDWLGVARELLHLSFPSTEASFWKRELGAAGLADIEARAAALGLEHDRFGLMPIHPWQWRDLSADRLRPLLQSGRIHYLGAAGDRYRASQSVRTLSNAQAPHRSSVKLALGIVNTSTRRNIEAHSVATAPVLSRWLDTILDSDPLFRLRYRLDIVSEFAGAIVDRDGPLGGEIAAIWRESVESKLADGESAVPFNALMAIEADGLPFIDPWLQRYGLKPWLDRLVEVAVLPVWRLLVVHGIATEAHGQNMVLVHRDGWPERLILRDFHDSLEFVPDFLADPNLAPDFLTLDPRYRRALPNQYYWMERPEDLRDLFVDCLFVFNLSEISHLVQSFYGISEGAFWHRVSLRLAADIAEHGLGERVARLGFGTPEIVIESLLARKLGLSGDALQHNVPNPLAAVVPLAREYA” is “failed”; for “MRRAEIPMNPLINHPAILFVVMLVVMSSATALGALVLRRIRPLPAEVKDDFGIVQGATLTLLALLIGFTLSMAVGRYDQRKNLEEEEANAIGTEYLRADLIEGPEAEQVKALLVRYLDQRILYYRTRDSAQLQEIEAATSQIEDEMWKLMRSAARAKPTPITGLVVSGMNDVINSQGYAEAAWINRIPVSAWGLMIVIAFFSSMMQGYGARSENAKIILMLVLPFTVSLSLALISDIDSPRGGLIRVLPQNLLSLQASLKR” it is “failed”; for “MRRAGYLHLYGLNLVFDRVGKGPPVLLVAEEASRWPEALPEGYAFYLLDLPGYGRTEGPRMAPEELAHFVAGFAVMMNLGAPWVLLRGLGLALGPHLEALGLRALPAEGVEVAEVLSSKLSYGNIDLGGNL” it is “not failed”.

Regarding “MRRELLLEKIETYKAIMPWYVLDYYQSKLAVPYSFTTLYEYLKEYKRFFDWLMDADLTQAPKIADIDLSTLEHLTKKDLEAFVLYLRERPSLNTYSTKEGLSQTTINRTLSALSSLYKYLTEEVENDQGEPYFYRNVMKKVSTKKKKETLASRAENIKQKLFLGDETLAFLDYVDKEYEQKLSNRAKSSFRKNKE”, the protein production entry is on record as “failed”.

For “MRRFNTSQNKNERNLFNDYIKNEDELYDERDDEGINKEPISLKADVNNNFFPIDQIHSTYFLCNNLNNDNTEKEINEHISFEKIQDHEKEEKKKIFLFNLSDNQKKQIENLKINKIIQNEMYLKKNKILKYIIHIFISDILKEKPNDVYDYASNYFTQPQFKMYILEKLKLRINK”, the protein production entry is reported as “failed”. Turning to “MRRGLVIVGHGSQLNHYREVMELHRKRIEESGAFDEVKIAFAARKRRPMPDEAIREMNCDIIYVVPLFISYGLHVTEDLPDLLGFPRGRGIKEGEFEGKKVVICEPIGEDYFVTYAILNSVFRIGRDGKGEE”, the protein production entry was “not failed”.

As to “MRRHTSSLDDQSLWRVALDYARDAAVIIDDGGHICYVNQAAERIWGIGRADLVGSHSDCLGVDAIQPEPVAGSHLTNAASDLPLAIDITSRDNRSITAELTRSTIRVDGLNYTMLTVRDVT”, the protein production entry is given as “failed”. The entry for “MRRILGPVLAAHYLAAFTALGMPLFLPQVLAELAPSAAVGWSGVLYVLPTLCTALTASTWGRWADRNGRKRSLLRAQLGLALGFAIAGFAPSLTWLVIGLIVQGTCGGSLAAANAYLASQPQAGPLARALDWTQYSARLAMVSAPALLGLALALGPAQSLYRALALLPLIAFALTWRLPADQPAAREPAAGTPATSLKHAASSPASPRTVAATSWPALLLAQFLFCFAMVVTFPYFIPYALARGAGHDALAGLLYSLPHLVYLVVLPWWRRGDGEAWLVPGLALFAAACVWQALLHDALALAAARLLFGFGMLFGLRGLNRSLAHIASGHSAGRLFGRFDACGKWAGVFAGAAAGALAQASGPATPFLAAALAAAAAALTVLVRFPSRRTADVAAHDA” is “failed”.
